Results as given in PMC11528121, “Structural basis of the bacterial flagellar motor rotational switching” (Cell Research, 2024).

B1: FliG (natural protein, UniProt P0A1J9 1-331, looked up)
chain: MSNLSGTDKSVILLMTIGEDRAAEVFKHLSTREVQALSTAMANVRQISNKQLTDVLSEFEQEAEQFAALNINANEYLRSVLVKALGEERASSLLEDILETRDTTSGIETLNFMEPQSAADLIRDEHPQIIATILVHLKRSQAADILALFDERLRHDVMLRIATFGGVQPAALAELTEVLNGLLDGQNLKRSKMGGVRTAAEIINLMKTQQEEAVITAVREFDGELAQKIIDEMFLFENLVDVDDRSIQRLLQEVDSESLLIALKGAEPPLREKFLRNMSQRAADILRDDLANRGPVRLSQVENEQKAILLIVRRLAETGEMVIGSGEDTYV
notes: FliG, flagellar motor switch protein of the C ring, Salmonella Typhimurium LT2; domains FliGN, FliGM, FliGCN, FliGCC; Subunit of the purified complex m8; 34 copies in the C ring; also called FliGN; FliGM
B2: FliE (natural protein, UniProt P26462 1-104, looked up)
chain: MAAIQGIEGVISQLQATAMAARGQDTHSQSTVSFAGQLHAALDRISDRQAAARVQAEKFTLGEPGIALNDVMADMQKASVSMQMGIQVRNKLVAAYQEVMSMQV
notes: FliE, rod protein of the flagellar basal body, Salmonella Typhimurium LT2; Subunit of the purified complex m8; 6 copies in the rod; also called FliE^6
B3: FlgC (natural protein)
chain: MALLNIFDIAGSALAAQSKRLNVAASNLANADSVTGPDGQPYRAKQVVFQVDAAPGQATGGVKVASVIESQAPEKLVYEPGNPLADANGYVKMPNVDVVGEMVNTMSASRSYQANIEVLNTVKSMMLKTLTLGQ
notes: FlgC, proximal rod protein of the flagellar basal body, Salmonella Typhimurium LT2; Subunit of the purified complex m8; 6 copies in the rod; also called FlgC^1; FlgC^6
B4: CheY D13K/Y106W (constitutively active double mutant) (natural protein)
chain: MADKELKFLVVDKFSTMRRIVRNLLKELGFNNVEEAEDGVDALNKLQAGGFGFIISDWNMPNMDGLELLKTIRADSAMSALPVLMVTAEAKKENIIAAAQAGASGWVVKPFTAATLEEKLNKIFEKLGM
notes: CheY, chemotaxis signal protein, gene amplified from genomic DNA of Salmonella enterica serovar Typhimurium LT2; double mutant D13K/Y106W; Tag linked through an HRV3C protease site; residues of the site may remain at the C-terminus after cleavage; Vector pET-14b; source: E. coli BL21 (DE3), purified (Streptactin column, PreScission protease digestion, Superdex 75); not shown: Twin-Strep-tag II, …
B5: FliM (natural protein, UniProt P26418 1-334, looked up)
chain: MGDSILSQAEIDALLNGDSDTKDEPTPGIASDSDIRPYDPNTQRRVVRERLQALEIINERFARQFRMGLFNLLRRSPDITVGAIRIQPYHEFARNLPVPTNLNLIHLKPLRGTGLVVFSPSLVFIAVDNLFGGDGRFPTKVEGREFTHTEQRVINRMLKLALEGYSDAWKAINPLEVEYVRSEMQVKFTNITTSPNDIVVNTPFHVEIGNLTGEFNICLPFSMIEPLRELLVNPPLENSRHEDQNWRDNLVRQVQHSELELVANFADIPLRLSQILKLKPGDVLPIEKPDRIIAHVDGVPVLTSQYGTVNGQYALRVEHLINPILNSLNEEQPK
notes: FliM, flagellar motor switch protein of the C ring, Salmonella Typhimurium LT2; domains FliMN, FliMM, FliMC; Subunit of the purified complex m8; 34 copies in the C ring; also called FliMN; FliMM
B6: FliF (natural protein, UniProt P15928 1-560, looked up)
chain: MSATASTATQPKPLEWLNRLRANPRIPLIVAGSAAVAIVVAMVLWAKTPDYRTLFSNLSDQDGGAIVAQLTQMNIPYRFANGSGAIEVPADKVHELRLRLAQQGLPKGGAVGFELLDQEKFGISQFSEQVNYQRALEGELARTIETLGPVKSARVHLAMPKPSLFVREQKSPSASVTVTLEPGRALDEGQISAVVHLVSSAVAGLPPGNVTLVDQSGHLLTQSNTSGRDLNDAQLKFANDVESRIQRRIEAILSPIVGNGNVHAQVTAQLDFANKEQTEEHYSPNGDASKATLRSRQLNISEQVGAGYPGGVPGALSNQPAPPNEAPIATPPTNQQNAQNTPQTSTSTNSNSAGPRSTQRNETSNYEVDRTIRHTKMNVGDIERLSVAVVVNYKTLADGKPLPLTADQMKQIEDLTREAMGFSDKRGDTLNVVNSPFSAVDNTGGELPFWQQQSFIDQLLAAGRWLLVLVVAWILWRKAVRPQLTRRVEEAKAAQEQAQVRQETEEAVEVRLSKDEQLQQRRANQRLGAEVMSQRIREMSDNDPRVVALVIRQWMSNDHE
notes: FliF, MS ring protein, Salmonella Typhimurium LT2; RBM1, RBM2, RBM3, β-collar, C-terminal region FliFC; Subunit of the purified complex m8; 34 copies in the MS ring; also called FliFC; MS ring protein
B7: FliN (natural protein, UniProt P26419 1-137, looked up)
chain: MSDMNNPSDENTGALDDLWADALNEQKATTTKSAADAVFQQLGGGDVSGAMQDIDLIMDIPVKLTVELGRTRMTIKELLRLTQGSVVALDGLAGEPLDILINGYLIAQGEVVVVADKYGVRITDIITPSERMRRLSR
notes: FliN, flagellar motor switch protein of the C ring, Salmonella Typhimurium LT2; FliN1, FliN2 and FliN3 are the three copies in one protomer; Subunit of the purified complex m8; 102 copies in the C ring; also called FliN1; FliN2

What was measured:
FliF [1] = molecular target: B6; assay: cryo-EM structure; 5 μL purified CCW basal body–hook complex mixed with 1 μL CheY** (2 mg/mL), 15 min at room temperature, 1.5 h on ice; CW state; C ring C34 map 5.6 Å, four protomers 4.4 Å, whole complex 4.3 Å, local maps 2.8–3.8 Å; conditions: both partners purified
FliM [2] = molecular target: B5; assay: cryo-EM structure; basal body–hook complex in the default CCW state purified from S. Typhimurium ΔfliCD in TET buffer (10 mM Tris-HCl pH 8.0, 5 mM EDTA, 0.1% Triton X-100); C ring C34 map 5.9 Å, four protomers 4.0 Å, whole complex 7.4 Å, local maps 3.0–4.3 Å; conditions: both partners purified
[3] = molecular target: the molecule itself; assay: as above
FliF [4] = molecular target: B6; assay: as above; conditions: both partners purified
FliM [5] = molecular target: B5; assay: cryo-EM structure; 5 μL purified CCW basal body–hook complex mixed with 1 μL CheY** (2 mg/mL), 15 min at room temperature, 1.5 h on ice; CW state; C ring C34 map 5.6 Å, four protomers 4.4 Å, whole complex 4.3 Å, local maps 2.8–3.8 Å; conditions: both partners purified
[6] = molecular target: T1, C ring-containing flagellar basal body–hook complex in the default CCW state (Salmonella enterica serovar Typhimurium …, UniProt P0A1J9 1-331; P26418 1-334; P26419 1-137; P15928 1-560; P54700 22-245; P54702 …); assay: as above; conditions: both partners purified
T1 construct: FliG, C ring, Salmonella Typhimurium LT2; FliM, C ring, Salmonella Typhimurium LT2; FliN, C ring, Salmonella Typhimurium LT2; FliF, MS ring, Salmonella Typhimurium LT2; FliP, export apparatus, Salmonella Typhimurium LT2; FliR, export apparatus, Salmonella Typhimurium LT2; FliQ, export apparatus, Salmonella Typhimurium LT2; FliE, rod, Salmonella Typhimurium LT2; FlgB, rod, Salmonella Typhimurium …

Binder: B1
- binding result (FliF [1]): binds
- stoichiometry N (FliM [2]): 1
- stoichiometry N [3]: 34

Binder: B2
- binding result (FliF [4]): binds

Binder: B3
- binding result (FliF [4]): binds

Binder: B4
- binding result (FliM [5]): binds
- stoichiometry N [6]: 34

Binder: B5
- stoichiometry N [3]: 34

Binder: B6
- stoichiometry N [3]: 34

Binder: B7
- stoichiometry N (FliM [2]): 3
- binding result [3]: binds
